B1: control molecule: "unconjugated control Fc molecule (m-IgG2a type; SEQ ID NO: 2)" (protein, listed as Mus musculus)
chain: PRGPTIKPCPPCKCPAPNLLGGPSVFIFPPKIKDVLMISLSPIVTCVVVDVSEDDPDVQISWFVNNVEVHTAQTQTHREDYNSTLRVVSALPIQHQDWMSGKEFKCKVNNKDLPAPIERTISKPKGSVRAPQVYVLPPPEEEMTKKQVTLTCMVTDFMPEDIYVEWTNNGKTELNYKNTEPVLDSDGSYFMYSKLRVEKKNWVERNSYSCSVVHEGLHNHHTTKSFSRTPGK
B2: Conjugate 15 (conjugate)
chain: PRGPTIKPCPPCKCPAPNLLGGPSVFIFPPKIKDVLMISLSPIVTCVVVDVSEDDPDVQISWFVNNVEVHTAQTQTHREDYNSTLRVVSALPIQHQDWMSGKEFKCKVNNKDLPAPIERTISKPKGSVRAPQVYVLPPPEEEMTKKQVTLTCMVTDFMPEDIYVEWTNNGKTELNYKNTEPVLDSDGSYFMYSKLRVEKKNWVERNSYSCSVVHEGLHNHHTTKSFSRTPGKHHHHHH
modifications: cyclised or stapled

Legend:
E. coli ATCC 25922 = assay: Complement-dependent cytotoxicity (CDC) assay; format: cell-based, Escherichia coli; details: 0.2 uM; 10% normal human serum; 90 minutes
Method: Gram-negative bacteria were cultured overnight in Luria-Bertani (LB) (BD Difco™ Cat. 244620) at 37° C. under constant agitation. The next day, bacteria were grown to log phase until the OD600 reached 0.4 (˜10^8 CFU/mL). Bacteria were washed in DPBS pH 7.4 (Gibco 10010-023) resuspended in RPMI 1640 (Gibco 11-835-055) at 10^6 CFU/mL and […] was added to the wells of a 96-well, TC-treated, polystyrene plate (Fisher 08-772-2C).
The plates were incubated at 37° C. for 90 minutes. At the end of the assay, wells were serially diluted in sterile water and remaining bacteria were cultured overnight at 37° C. on agar plates. Colonies were counted the next day and CFU/mL and % survival normalized to RPMI control was determined using the following equations: CFU/mL=(colonies*dilution factor)/volume and […] normalized to RPMI=([CFU/mL of test condition]/[CFU/mL of molecule in RPMI])*100.

Escherichia coli BW25113 = assay: MIC assay (broth microdilution), Ec BW; format: cell-based; details: assay media RPMI A
Method: (§1) Bacterial strains were stored as glycerol stocks at −80° C. prior to culturing on cation-adjusted Mueller-Hinton agar (MHA; BD cat. no. 211438) at 37° C. Antibacterial activity was assessed against a panel consisting of Escherichia coli, Acinetobacter baumannii, Pseudomonas aeruginosa, and Klebsiella pneumoniae strains (see Table 2).
(§2) Briefly, stock solutions of all antibacterial agents were prepared fresh in appropriate solvents (i.e. PBS, pH 7.4, DMSO, DI, etc.). Stock concentrations were made at 50× the highest final assay concentration and serially diluted 2-fold, 8 or 12 times in a 96-well PCR plate (VWR cat. no. 83007-374). Bacterial cell suspensions generated from MHA plate cultures were prepared in 0.85% saline and adjusted to ˜0.1 OD600 nm. […] Dorschner R A et al., The mammalian ionic environment dictates microbial susceptibility to antimicrobial defense peptides. FASEB J. 20(1):35-42 (2017). Ninety-eight microliters of each cell suspension in MHB were added to test wells in a 96-well assay plate (Costar cat. no. 3370). A Beckman Multimek 96 liquid handling robot was used to dispense 2 μL of each 50× stock compound into the plate containing 98 μL of each strain in MHB (2% final solvent concentration). E. coli strains BW25113 and ATCC 25922 were run in the presence and absence of 50% heat-inactivated fetal bovine serum (FBS; Sigma, cat. no. F4135-100 mL). Plates were mixed by shaking then incubated at 37° C. overnight (16-20 h).

[1] = system: Escherichia coli BW25113 + pUC18-mcr-1; assay: MIC assay (broth microdilution), Ec BW (mcr-1); format: cell-based; details: assay media RPMI A
Source text: An mcr-1 expression plasmid was constructed (GenScript; Piscataway, N.J.) using the pUC18 high copy number plasmid (Yanisch-Perron, et al., 1985). A 1649-bp fragment was synthesized containing, in order from 5′ to 3′: EcoR1 restriction site (5′-GAATTC-3′), a ribosomal binding site (5′-AGGAGG-3′), a 5-bp native start codon upstream sequence (5′-TTCTC-3′) from the mcr-1-bearing plasmid pHNSHP45 (Liu, Y Y, et al., 2015; GenBank Accession #KP347127), the 1626-bp mcr-1 open reading frame with stop codon (“orf00073” of GenBank Accession #KP347127), and finally an Xba1 restriction site sequence (5′-TCTAGA-3′). […] The pUC18-mcr-1 plasmid was transformed into chemically-competent E. coli BW25113 (Coli Genetic Stock Center #7636) as described previously (Chung, et al., PNAS. 1989), recovered for 1 h shaking at 37° C. in Super Optimal broth with Catabolite repression (SOC) media and then aliquots were plated on Luria-Bertani (LB) media containing 100 μg/mL of carbenicillin. Putative transformant colonies were then verified in MIC assays.
as §1
Briefly, stock solutions of all antibacterial agents were prepared fresh in appropriate solvents (i.e. PBS, pH 7.4, DMSO, DI, etc.). Stock concentrations were made at 50× the highest final assay concentration and serially diluted 2-fold, 8 or 12 times in a 96-well PCR plate (VWR cat. no. 83007-374). Bacterial cell suspensions generated from MHA plate cultures were prepared in 0.85% saline and adjusted to ˜0.1 OD600 nm. […] Later, conjugates 16 and 17, and 20-25 were evaluated in RPMI 1640 medium (+) L-glutamine, (+) sodium bicarbonate, pH 7.4 (“RPMI B”; Gibco, cat. no. 11875-085) as has been described as a more physiologically-relevant media for susceptibility testing of antibacterial compounds. […]

[2] = system: Escherichia coli BW25113 4X-12 (COL-R); assay: MIC assay (broth microdilution), Ec BW 4X-12 (COL-R); format: cell-based; details: assay media RPMI A
Method: as §1
(§3) Briefly, stock solutions of all antibacterial agents were prepared fresh in appropriate solvents (i.e. PBS, pH 7.4, DMSO, DI, etc.). Stock concentrations were made at 50× the highest final assay concentration and serially diluted 2-fold, 8 or 12 times in a 96-well PCR plate (VWR cat. no. 83007-374). Bacterial cell suspensions generated from MHA plate cultures were prepared in 0.85% saline and adjusted to ˜0.1 OD600 nm. Next, cell suspensions were diluted 1:200 in RPMI containing 5% Luria Broth (LB) to improve bacterial growth (BD Difco, cat. no. 244620) to a concentration of ˜5×10^5 CFU (colony-forming units)/mL. […] Later, conjugates 16 and 17, and 20-25 were evaluated in RPMI 1640 medium (+) L-glutamine, (+) sodium bicarbonate, pH 7.4 (“RPMI B”; Gibco, cat. no. 11875-085) as has been described as a more physiologically-relevant media for susceptibility testing of antibacterial compounds. Dorschner R A et al., The mammalian ionic environment dictates microbial susceptibility to antimicrobial defense peptides. FASEB J. 20(1):35-42 (2017). Ninety-eight microliters of each cell suspension in MHB were added to test wells in a 96-well assay plate (Costar cat. no. 3370). A Beckman Multimek 96 liquid handling robot was used to dispense 2 μL of each 50× stock compound into the plate containing 98 μL of each strain in MHB (2% final solvent concentration). E. coli strains BW25113 and ATCC 25922 were run in the presence and absence of 50% heat-inactivated fetal bovine serum (FBS; Sigma, cat. no. F4135-100 mL). Plates were mixed by shaking then incubated at 37° C. overnight (16-20 h).

[3] = system: Escherichia coli ATCC 25922; assay: MIC assay (broth microdilution), Ec 25922; format: cell-based; details: assay media RPMI A
Method: as §1, §2

[4] = system: Escherichia coli ATCC BAA-2469; assay: MIC assay (broth microdilution), Ec 2469; format: cell-based; details: assay media RPMI A
Method: as §1, §2

[5] = system: Acinetobacter baumannii ATCC 19606; assay: MIC assay (broth microdilution), Ab 19606; format: cell-based; details: assay media RPMI A
Method: as §1, §2

[6] = system: Acinetobacter baumannii ABS075-UW; assay: MIC assay (broth microdilution), Ab ABS075; format: cell-based; details: assay media RPMI A
Method: as §1, §2

[7] = system: Pseudomonas aeruginosa PAO1; assay: MIC assay (broth microdilution), Pa PAO1; format: cell-based; details: assay media RPMI A
Method: as §1, §3

recombinant mouse FcRn = molecular target: T1, recombinant mouse FcRn (Mus musculus, UniProt Q61559); assay: Binding of conjugates to FcRn (ELISA), mouse; details: pH 6.25; 20 μg/mL starting concentration, 2-fold diluted
T1 construct: purchased R&D 6775-FC-050
T1 sequence (Q61559 22-297 limits assumed): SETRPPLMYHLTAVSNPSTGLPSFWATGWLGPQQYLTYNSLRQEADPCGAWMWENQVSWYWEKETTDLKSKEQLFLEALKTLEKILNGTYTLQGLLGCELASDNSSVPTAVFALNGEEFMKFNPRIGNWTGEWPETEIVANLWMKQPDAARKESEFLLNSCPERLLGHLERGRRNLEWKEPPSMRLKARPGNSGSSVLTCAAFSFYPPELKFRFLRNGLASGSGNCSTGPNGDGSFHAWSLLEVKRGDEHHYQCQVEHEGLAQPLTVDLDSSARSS
T1 sequence (P01887 21-119 partner): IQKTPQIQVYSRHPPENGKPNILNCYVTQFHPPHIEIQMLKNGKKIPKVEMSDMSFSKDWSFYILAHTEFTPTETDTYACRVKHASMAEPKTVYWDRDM
Method: 96-well ELISA plates (Fisher, Cat. No. 12-565-136) were coated with 0.25 μg/well of recombinant mouse FcRn (R&D, Cat. No. 6775-FC-050) or recombinant human FcRn (R&D, Cat. No. 8639-FC-050) in carbonate-bicarbonate buffer (Sigma, Cat. No. C34041) at pH 6.25 overnight at 37° C. A pH of 6.25 was maintained during the complete experiment. Blocking was carried out with 5% skim milk in PBS with 0.05% Tween 20. Purified conjugates were added at 20 μg/mL starting concentration and serially 2-fold diluted in blocking buffer. For detection, HRP-labeled secondary anti-mouse IgG-HRP (GE Healthcare, Cat. No. NA931V) or anti-human IgG-HRP (GE Healthcare, Cat. No. NA933V) was used to detect the bound conjugates. Absorbance was measured at 450 nm with a 96-well microplate reader and data were analyzed using GraphPad Prism software, FIGS. 33A-33F.

Molecule	antibacterial activity in the presence of 10% complement active NHS (E. coli ATCC 25922)	MIC, Ec BW (Escherichia coli BW25113)	MIC, Ec BW + FBS (Escherichia coli BW25113; 50% heat-inactivated FBS)	MIC, Ec BW (mcr-1) [1]	MIC, Ec BW 4X-12 (COL-R) [2]	MIC, Ec 25922 [3]	MIC, Ec 25922 + FBS ([3]; 50% heat-inactivated FBS)	MIC, Ec 2469 [4]	MIC Ab 19606 [5]	MIC Ab AB5075 [6]	MIC Pa PAO1 [7]	binding to mouse FcRn (ELISA) (recombinant mouse FcRn)
B1	no antibacterial activity											
B2		>128 µg/mL	>128 µg/mL	>128 µg/mL	>128 µg/mL	>128 µg/mL	>128 µg/mL	>128 µg/mL	>128 µg/mL	>128 µg/mL	16 µg/mL	does not interfere with FcRn interaction

Reference: patent publication US20230190950A1, “COMPOSITIONS AND METHODS FOR THE TREATMENT OF BACTERIAL INFECTIONS” (Cidara Therapeutics, Inc., priority 2017, published 2023)
